# US6462016 (SHISEIDO, dated 2002)
# Biological target: maxadilan (recombinant represented by SEQ ID NO: 2, peptide fragment GSIL- bound to the N-terminal cysteine … (Lutzomyia longipalpis (sand fly), UniProt P30659 24-86))
# Experiment: ^125I-Max saturation binding and Scatchard plot, rabbit spleen crude membrane fraction, filtration
binder,measurement,value
maxadilan receptor of the rabbit (maxadilan-specific receptor in crude membrane fractions from rabbit brain and rabbit spleen) (receptor) MAGVLQVSLAALLLLPAATAMHSDCIFKKEQALCLEKIQRANDLLGLNDSSPGCPGMWDNITCWKPAHVGEMVLVSCPELFRIFNPDQGEFDFAESTSLDLADMGVVSRNCTEDGWSEPFPHYFDACGFDEYESEPGDQDYYYLSVKALYTVGYSTSLVTLTTAMVILCRFRKLHCTRNFIHMNLFVSFMLRAISVFIKDWILYAEQDSNHCFVSTVECKAVMVFFHYCVVSNYFWLFIEGLYLFTLLVETFFPERRYFYWYTMIGWGTPTVCVAVWATLRLYFDDTGCWDMNDSTALWWVIKGPVVASIMVNFVLFIGIIIILVQKLQSPDTGGNESSIYLRLARSTLLLIPLFGIHYTVFAFSPENVSKRERLVFELGLGSFQGFVVAVLYCFLNGEVQAEIKRKWRSWKVNRYFAVDFKHRHPSLASSGVNGGTQLSILSKSSSQLRMSGLPADNLAT,Kd,55 pM
